Residue numbers refer to the chain shown, from its start. In names and notes the source's numbering stands.
B1: Mtb-MazG E119A (enzyme)
chain: MIVVLVDPRRPTLVPVEAIEFLRGEVQYTEEMPVAVPWSLPAARSAHAGNDAPVLLSSDPNHPAVITRLAAGARLISAPDSQRGERLVDAVAMMDKLRTAGPWESEQTHDSLRRYLLEATYELLDAVRSGSVDQLREELGDLLLQVLFHARIAEDASQSPFTIDDVADTLMRKLGNRAPGVLAGESISLEDQLAQWEAAKASEKARKSVADDVHTGQPALALAQKVIQRAQKAGLPAHLIPDEITSVSVSADVDAENTLRTAVLDFIDRLRCAERAIAVARRGSNVAEQLDVTPLGVITEQEWLAHWPTAVNDSRGGSKKRKGMR
B2: Mtb-MazG E122A (enzyme)
chain: B1 chain with A119E, E122A
B3: Mtb-MazG D141A (enzyme)
chain: B1 chain with A119E, D141A
B4: Mtb-MazG E138A (enzyme)
chain: B1 chain with A119E, E138A
B5: Mtb-MazG (1–185) (domain or fragment)
chain: MIVVLVDPRRPTLVPVEAIEFLRGEVQYTEEMPVAVPWSLPAARSAHAGNDAPVLLSSDPNHPAVITRLAAGARLISAPDSQRGERLVDAVAMMDKLRTAGPWESEQTHDSLRRYLLEETYELLDAVRSGSVDQLREELGDLLLQVLFHARIAEDASQSPFTIDDVADTLMRKLGNRAPGVLAGE

Biological target: the molecule itself
Experiment: SEC

Protein | stoichiometry N
B1 | 2
B2 | 2
B3 | 2
B4 | 2
B5 | 2

From publication PMC10014863, “Structural analysis of the housecleaning nucleoside triphosphate pyrophosphohydrolase MazG from Mycobacterium tuberculosis” (Frontiers in Microbiology, 2023)
